The source of these data is patent publication US20150064134A1.

Targets include Ros(h) (human) (UniProt P08922); Met(M1268T)(h) (human) (UniProt P08581); ASK1(h) (human) (UniProt Q99683); Rsk3(h) (human) (UniProt Q15349); PKCθ(h) (human) (UniProt Q04759); CDK5/p25(h) (human) (UniProt Q00535); IRR(h) (human) (UniProt P14616); Met(Y1248C)(h) (human) (UniProt P08581); EphB1(h) (human) (UniProt P54762); Met(h) (human) (UniProt P08581); TrkA(h) (human) (UniProt P04629); p70S6K(h) (human) (UniProt P23443); Abl(h) (human) (UniProt P00519); EGFR(h) (human) (UniProt P00533); cKit(D816V)(h) (human) (UniProt P10721); Rsk2(h) (human) (UniProt P51812); DYRK2(h) (human) (UniProt Q92630); MELK(h) (human) (UniProt Q14680); DAPK1(h) (human) (UniProt P53355); CaMKIδ(h) (human) (UniProt Q8IU85).

Common to all, as to assay: cell-based or functional assay
The target in assay [1] is EGFR(T790M,L858R)(h) (human) (UniProt P00533).
In a further assay the target is T1, MST1(h) (human) (UniProt Q13043).
T1 sequence (looked up): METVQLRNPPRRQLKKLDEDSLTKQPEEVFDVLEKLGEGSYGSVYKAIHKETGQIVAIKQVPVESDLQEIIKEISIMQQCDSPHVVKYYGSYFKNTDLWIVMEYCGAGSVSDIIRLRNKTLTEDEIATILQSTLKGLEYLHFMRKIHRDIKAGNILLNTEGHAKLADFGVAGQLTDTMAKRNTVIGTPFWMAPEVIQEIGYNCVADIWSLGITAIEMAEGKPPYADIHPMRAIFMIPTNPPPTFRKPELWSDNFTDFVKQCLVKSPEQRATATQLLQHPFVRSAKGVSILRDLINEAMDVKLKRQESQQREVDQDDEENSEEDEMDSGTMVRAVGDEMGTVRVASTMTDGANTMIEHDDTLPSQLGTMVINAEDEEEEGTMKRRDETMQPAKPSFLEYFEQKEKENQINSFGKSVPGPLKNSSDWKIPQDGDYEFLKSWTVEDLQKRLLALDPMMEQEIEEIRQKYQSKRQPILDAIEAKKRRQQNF

In another assay the target is T2, TSSK1(h) (human) (UniProt Q9BXA7).
T2 sequence (looked up): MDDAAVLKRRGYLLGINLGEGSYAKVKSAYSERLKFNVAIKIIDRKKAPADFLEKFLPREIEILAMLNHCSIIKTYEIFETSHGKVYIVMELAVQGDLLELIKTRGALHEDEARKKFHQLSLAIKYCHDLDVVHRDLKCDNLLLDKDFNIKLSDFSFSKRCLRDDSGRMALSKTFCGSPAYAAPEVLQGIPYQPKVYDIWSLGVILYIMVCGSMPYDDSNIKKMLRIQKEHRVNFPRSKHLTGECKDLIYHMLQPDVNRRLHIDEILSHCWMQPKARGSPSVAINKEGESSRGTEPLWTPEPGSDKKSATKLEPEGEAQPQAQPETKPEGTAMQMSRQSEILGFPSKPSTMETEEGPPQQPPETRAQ

In another assay the target is T3, DCAMKL2(h) (human) (UniProt Q8N568).
T3 sequence (looked up): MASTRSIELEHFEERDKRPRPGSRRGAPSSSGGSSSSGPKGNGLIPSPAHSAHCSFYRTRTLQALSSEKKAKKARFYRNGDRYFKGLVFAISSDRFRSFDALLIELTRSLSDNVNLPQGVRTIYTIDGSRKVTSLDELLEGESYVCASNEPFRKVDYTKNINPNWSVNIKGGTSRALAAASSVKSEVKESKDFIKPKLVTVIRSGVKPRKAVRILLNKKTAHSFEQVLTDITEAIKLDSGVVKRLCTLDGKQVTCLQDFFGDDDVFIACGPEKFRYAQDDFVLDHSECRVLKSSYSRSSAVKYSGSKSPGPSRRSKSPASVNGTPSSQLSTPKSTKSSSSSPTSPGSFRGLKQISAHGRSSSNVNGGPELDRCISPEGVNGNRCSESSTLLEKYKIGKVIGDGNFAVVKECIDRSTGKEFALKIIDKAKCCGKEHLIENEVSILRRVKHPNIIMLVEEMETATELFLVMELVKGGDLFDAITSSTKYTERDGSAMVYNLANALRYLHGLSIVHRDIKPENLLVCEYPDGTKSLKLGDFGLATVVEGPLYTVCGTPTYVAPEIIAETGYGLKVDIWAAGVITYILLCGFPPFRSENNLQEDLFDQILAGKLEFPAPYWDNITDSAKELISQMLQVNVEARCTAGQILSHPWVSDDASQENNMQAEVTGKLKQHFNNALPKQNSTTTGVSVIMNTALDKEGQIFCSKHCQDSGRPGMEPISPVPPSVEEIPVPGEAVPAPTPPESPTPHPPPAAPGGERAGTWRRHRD

Chain of Rsk3(h) (human) (Q15349 whole entry): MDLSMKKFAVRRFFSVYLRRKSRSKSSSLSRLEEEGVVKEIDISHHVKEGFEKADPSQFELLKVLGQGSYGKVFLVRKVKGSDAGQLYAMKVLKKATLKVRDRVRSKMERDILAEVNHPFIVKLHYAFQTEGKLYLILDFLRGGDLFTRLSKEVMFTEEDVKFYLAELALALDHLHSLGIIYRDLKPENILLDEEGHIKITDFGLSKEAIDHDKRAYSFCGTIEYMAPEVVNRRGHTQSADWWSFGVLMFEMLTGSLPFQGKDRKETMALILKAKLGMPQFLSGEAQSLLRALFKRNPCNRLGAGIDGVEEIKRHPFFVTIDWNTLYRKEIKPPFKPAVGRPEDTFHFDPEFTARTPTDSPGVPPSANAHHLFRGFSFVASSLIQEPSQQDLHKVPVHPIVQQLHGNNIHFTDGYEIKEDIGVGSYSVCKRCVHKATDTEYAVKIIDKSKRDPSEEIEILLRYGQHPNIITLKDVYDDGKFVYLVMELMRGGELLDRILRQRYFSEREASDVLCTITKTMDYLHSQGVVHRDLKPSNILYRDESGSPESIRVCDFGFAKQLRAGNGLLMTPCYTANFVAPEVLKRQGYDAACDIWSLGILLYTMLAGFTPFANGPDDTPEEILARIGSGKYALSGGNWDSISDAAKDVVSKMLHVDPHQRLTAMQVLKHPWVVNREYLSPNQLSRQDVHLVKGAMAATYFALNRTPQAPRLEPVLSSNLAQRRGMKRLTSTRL
Chain of Abl(h) (human) (P00519 27-1130 limits assumed): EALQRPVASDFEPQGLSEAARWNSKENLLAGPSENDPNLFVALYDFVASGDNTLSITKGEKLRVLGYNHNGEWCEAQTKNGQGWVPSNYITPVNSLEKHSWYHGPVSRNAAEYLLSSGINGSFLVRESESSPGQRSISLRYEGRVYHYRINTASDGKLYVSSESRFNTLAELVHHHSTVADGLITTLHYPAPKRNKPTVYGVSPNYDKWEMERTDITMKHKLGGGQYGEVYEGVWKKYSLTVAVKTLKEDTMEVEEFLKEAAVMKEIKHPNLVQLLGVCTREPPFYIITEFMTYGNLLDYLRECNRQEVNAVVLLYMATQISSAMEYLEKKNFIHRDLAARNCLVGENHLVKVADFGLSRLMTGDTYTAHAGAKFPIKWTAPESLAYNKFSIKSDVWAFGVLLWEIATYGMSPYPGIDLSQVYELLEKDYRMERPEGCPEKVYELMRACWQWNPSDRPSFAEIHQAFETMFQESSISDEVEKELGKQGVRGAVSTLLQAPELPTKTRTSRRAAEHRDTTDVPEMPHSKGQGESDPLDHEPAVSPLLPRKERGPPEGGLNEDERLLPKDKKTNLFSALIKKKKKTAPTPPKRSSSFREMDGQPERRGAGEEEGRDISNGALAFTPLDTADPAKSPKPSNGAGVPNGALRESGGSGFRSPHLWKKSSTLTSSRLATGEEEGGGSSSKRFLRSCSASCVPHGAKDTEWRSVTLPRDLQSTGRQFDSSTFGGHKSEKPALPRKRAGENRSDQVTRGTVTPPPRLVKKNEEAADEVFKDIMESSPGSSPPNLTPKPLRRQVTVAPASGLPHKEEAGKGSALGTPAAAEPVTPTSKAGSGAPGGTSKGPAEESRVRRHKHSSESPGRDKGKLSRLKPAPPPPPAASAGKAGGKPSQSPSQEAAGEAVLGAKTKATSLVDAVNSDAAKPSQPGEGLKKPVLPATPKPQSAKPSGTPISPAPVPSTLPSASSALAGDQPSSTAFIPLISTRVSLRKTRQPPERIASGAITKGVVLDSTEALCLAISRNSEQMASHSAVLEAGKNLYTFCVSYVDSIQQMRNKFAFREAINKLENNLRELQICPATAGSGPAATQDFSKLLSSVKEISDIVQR
Chain of cKit(D816V)(h) (human) (P10721 544-976 D816V): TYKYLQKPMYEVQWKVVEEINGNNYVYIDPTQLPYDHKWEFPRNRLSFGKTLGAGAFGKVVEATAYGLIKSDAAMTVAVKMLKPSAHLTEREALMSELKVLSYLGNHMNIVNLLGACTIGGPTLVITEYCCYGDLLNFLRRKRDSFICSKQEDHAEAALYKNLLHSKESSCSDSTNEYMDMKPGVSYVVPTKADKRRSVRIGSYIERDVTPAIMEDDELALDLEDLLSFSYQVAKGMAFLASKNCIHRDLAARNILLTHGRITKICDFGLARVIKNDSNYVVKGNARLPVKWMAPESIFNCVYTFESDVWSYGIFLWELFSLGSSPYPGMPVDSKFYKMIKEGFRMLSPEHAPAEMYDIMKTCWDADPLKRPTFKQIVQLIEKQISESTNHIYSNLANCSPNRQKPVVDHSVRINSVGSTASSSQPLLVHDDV
Chain of EphB1(h) (human) (P54762 564-984 limits assumed): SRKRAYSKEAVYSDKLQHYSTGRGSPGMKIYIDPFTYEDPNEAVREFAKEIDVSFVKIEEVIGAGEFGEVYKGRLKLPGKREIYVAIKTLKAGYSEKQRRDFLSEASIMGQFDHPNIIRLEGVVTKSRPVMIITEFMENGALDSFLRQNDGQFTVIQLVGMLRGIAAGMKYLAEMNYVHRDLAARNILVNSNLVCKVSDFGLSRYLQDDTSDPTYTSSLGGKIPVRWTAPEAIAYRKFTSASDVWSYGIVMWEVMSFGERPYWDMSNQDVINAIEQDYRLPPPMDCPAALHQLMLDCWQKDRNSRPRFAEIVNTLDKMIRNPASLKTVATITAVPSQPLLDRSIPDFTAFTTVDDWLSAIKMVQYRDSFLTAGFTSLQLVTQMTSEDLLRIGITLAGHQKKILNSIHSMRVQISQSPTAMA
Chain of Rsk2(h) (human) (P51812 whole entry): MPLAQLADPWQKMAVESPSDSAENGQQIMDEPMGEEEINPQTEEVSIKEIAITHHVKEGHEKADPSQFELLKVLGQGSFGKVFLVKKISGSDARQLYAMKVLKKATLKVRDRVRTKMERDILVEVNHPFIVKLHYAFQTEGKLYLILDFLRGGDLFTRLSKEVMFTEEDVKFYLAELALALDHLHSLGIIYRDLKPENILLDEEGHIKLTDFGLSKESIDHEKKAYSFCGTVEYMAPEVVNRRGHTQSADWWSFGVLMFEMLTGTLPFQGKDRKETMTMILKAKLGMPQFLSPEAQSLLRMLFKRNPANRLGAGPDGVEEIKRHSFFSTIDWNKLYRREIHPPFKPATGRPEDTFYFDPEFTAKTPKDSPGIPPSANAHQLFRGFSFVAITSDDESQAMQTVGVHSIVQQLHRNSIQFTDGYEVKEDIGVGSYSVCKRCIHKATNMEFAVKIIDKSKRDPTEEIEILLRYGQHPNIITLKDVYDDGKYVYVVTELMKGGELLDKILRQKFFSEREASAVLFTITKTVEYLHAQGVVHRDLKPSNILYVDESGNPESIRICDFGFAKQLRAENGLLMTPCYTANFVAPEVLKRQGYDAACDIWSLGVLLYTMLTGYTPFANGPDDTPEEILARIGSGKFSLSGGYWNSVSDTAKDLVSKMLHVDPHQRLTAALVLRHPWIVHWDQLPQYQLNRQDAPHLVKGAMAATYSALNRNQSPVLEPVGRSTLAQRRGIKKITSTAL
Chain of IRR(h) (human) (P14616 944-1297 limits assumed): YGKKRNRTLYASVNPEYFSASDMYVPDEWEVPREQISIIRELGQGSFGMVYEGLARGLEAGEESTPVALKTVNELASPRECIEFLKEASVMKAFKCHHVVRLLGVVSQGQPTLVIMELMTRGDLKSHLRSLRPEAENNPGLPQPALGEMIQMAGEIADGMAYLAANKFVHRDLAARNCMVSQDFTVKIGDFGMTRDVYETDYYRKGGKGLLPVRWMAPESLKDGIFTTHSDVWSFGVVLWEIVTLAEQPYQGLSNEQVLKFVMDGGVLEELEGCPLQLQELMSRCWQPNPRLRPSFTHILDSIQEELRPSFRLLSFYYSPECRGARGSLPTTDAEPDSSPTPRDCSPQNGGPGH
Chain of Ros(h) (human) (P08922 1883-2347 limits assumed): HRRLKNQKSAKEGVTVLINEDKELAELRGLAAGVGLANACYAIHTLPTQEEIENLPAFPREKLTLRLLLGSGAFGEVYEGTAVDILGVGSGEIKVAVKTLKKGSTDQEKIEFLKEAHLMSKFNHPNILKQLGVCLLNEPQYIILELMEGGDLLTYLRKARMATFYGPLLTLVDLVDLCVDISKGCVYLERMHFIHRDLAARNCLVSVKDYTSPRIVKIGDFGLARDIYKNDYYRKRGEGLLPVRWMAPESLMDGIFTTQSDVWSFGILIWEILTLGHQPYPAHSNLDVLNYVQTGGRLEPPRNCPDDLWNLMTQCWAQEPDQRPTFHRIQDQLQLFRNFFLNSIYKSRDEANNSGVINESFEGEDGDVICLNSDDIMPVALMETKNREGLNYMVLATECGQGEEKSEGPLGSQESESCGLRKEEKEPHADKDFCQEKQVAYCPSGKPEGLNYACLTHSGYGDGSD

Regarding MMI-0400 (peptide), the % activity at 100 µM in assay [1] was determined as 78%; in the assay with Ros(h) (human), 99%; with MST1(h) (human), 6%; with Met(M1268T)(h) (human), 265%; in the assay with ASK1(h) (human) it was 69%; with Rsk3(h) (human), 71%. For the same substance, the % activity at 100 µM in the assay with TSSK1(h) (human) was 79%; in the assay with PKCθ(h) (human) it was 76%; with CDK5/p25(h) (human), 92%; with IRR(h) (human), 8%; in the assay with Met(Y1248C)(h) (human) it was 36%; with DCAMKL2(h) (human) it was 70%. In addition, the % activity at 100 µM worked out at 58% in the assay with EphB1(h) (human); 62% in the assay with Met(h) (human); 17% with TrkA(h) (human); 33% with p70S6K(h) (human); 84% with Abl(h) (human); 16% in the assay with EGFR(h) (human). Besides, the % activity at 100 µM came out at 35% with cKit(D816V)(h) (human); 38% in the assay with Rsk2(h) (human); 195% in the assay with DYRK2(h) (human); 17% with MELK(h) (human); 36% in the assay with DAPK1(h) (human); 17% with CaMKIδ(h) (human).
As to MMI-0500 (peptide), the % activity at 100 µM in assay [1] was 53%; with Ros(h) (human) it was 150%; in the assay with MST1(h) (human) it was 3%; with Met(M1268T)(h) (human) it was 239%; in the assay with ASK1(h) (human) it was -4%; in the assay with Rsk3(h) (human), 23%. The % activity at 100 µM with TSSK1(h) (human) came out at 46%; in the assay with PKCθ(h) (human) it was 62%; with CDK5/p25(h) (human) it was 66%; with IRR(h) (human) it was 10%; with Met(Y1248C)(h) (human), 73%; in the assay with DCAMKL2(h) (human), 56%. Also, the % activity at 100 µM with EphB1(h) (human) was 37%; with Met(h) (human) it was 27%; in the assay with TrkA(h) (human) it was 24%; with p70S6K(h) (human), 3%; with Abl(h) (human) it was 16%; with EGFR(h) (human) it was -1%. Also, the % activity at 100 µM in the assay with cKit(D816V)(h) (human) amounted to 30%; with Rsk2(h) (human), 14%; with DYRK2(h) (human), 127%; with MELK(h) (human), 0%; with DAPK1(h) (human), 0%; in the assay with CaMKIδ(h) (human), 0%.
Take MMI-0300 (peptide): the % activity at 100 µM is 85% in assay [1]; 95% with Ros(h) (human); 14% with MST1(h) (human); 255% in the assay with Met(M1268T)(h) (human); 80% with ASK1(h) (human); 76% with Rsk3(h) (human). Besides, the % activity at 100 µM with TSSK1(h) (human) was determined as 79%; with PKCθ(h) (human), 88%; with CDK5/p25(h) (human), 89%; with IRR(h) (human) it was 8%; in the assay with Met(Y1248C)(h) (human), 84%; with DCAMKL2(h) (human) it was 81%. Further, the % activity at 100 µM with EphB1(h) (human) came out at 44%; in the assay with Met(h) (human) it was 65%; with TrkA(h) (human), 25%; with p70S6K(h) (human) it was 35%; with Abl(h) (human), 69%; in the assay with EGFR(h) (human), 21%. For the same substance, the % activity at 100 µM in the assay with cKit(D816V)(h) (human) came out at 60%; with Rsk2(h) (human), 51%; with DYRK2(h) (human), 155%; with MELK(h) (human), 16%; with DAPK1(h) (human), 46%; with CaMKIδ(h) (human) it was 10%.
